What all share (experiment): cell_activity
Data set [1] concerns the target T1, CbbR D144N (Ralstonia eutropha) (UniProt P42722).
T1 sequence: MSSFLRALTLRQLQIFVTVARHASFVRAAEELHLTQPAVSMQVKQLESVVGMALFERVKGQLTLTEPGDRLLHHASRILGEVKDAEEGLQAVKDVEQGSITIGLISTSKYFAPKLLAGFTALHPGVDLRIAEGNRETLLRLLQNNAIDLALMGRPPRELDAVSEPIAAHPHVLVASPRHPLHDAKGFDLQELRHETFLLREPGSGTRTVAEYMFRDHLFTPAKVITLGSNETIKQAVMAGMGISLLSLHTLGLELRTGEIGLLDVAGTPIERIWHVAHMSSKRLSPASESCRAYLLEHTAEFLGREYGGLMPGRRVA
The note with it: beta-galactosidase, chemoheterotrophic; chemoautotrophic 6932.

For data set [2], the target named is T2, CbbR E87K (Ralstonia eutropha) (UniProt P42722).
T2 sequence: T1 sequence with E87K, N144D
The conditions noted are these: beta-galactosidase, chemoheterotrophic; chemoautotrophic 5515.

Data set [3] has as its target T3, CbbR E87K/G242S (Ralstonia eutropha) (UniProt P42722).
T3 sequence: T1 sequence with E87K, N144D, G242S
The note with it: beta-galactosidase, chemoheterotrophic; chemoautotrophic 4820.

Data set [4] has as its target T4, CbbR G125D (Ralstonia eutropha) (UniProt P42722).
T4 sequence: T1 sequence with G125D, N144D
The conditions noted are these: beta-galactosidase, chemoheterotrophic; chemoautotrophic 6777.

Data set [5] has as its target T5, CbbR G125S/V265M (Ralstonia eutropha) (UniProt P42722).
T5 sequence: T1 sequence with G125S, N144D, V265M
The note with it: beta-galactosidase, chemoheterotrophic; chemoautotrophic 6770.

For data set [6], the target named is T6, CbbR G205D/G118D (Ralstonia eutropha) (UniProt P42722).
T6 sequence: T1 sequence with G118D, N144D, G205D
The note with it: beta-galactosidase, chemoheterotrophic; chemoautotrophic 3939.

For data set [7], the target named is T7, CbbR P221S/T299I (Ralstonia eutropha) (UniProt P42722).
T7 sequence: T1 sequence with N144D, P221S, T299I
The note with it: beta-galactosidase, chemoheterotrophic; chemoautotrophic 5312.

Data set [8] has as its target T8, CbbR T232I (Ralstonia eutropha) (UniProt P42722).
T8 sequence: T1 sequence with N144D, T232I
The note with it: beta-galactosidase, chemoheterotrophic; chemoautotrophic 5005.

Positions count from the first letter of the chain named.

For the substance cbb promoter in lacZ reporter strain, the activity amounted to 809 nmol/min/mg in data set [1]; 1600 nmol/min/mg in data set [2]; 303 nmol/min/mg in data set [3]; 108 nmol/min/mg in data set [4]; 53 nmol/min/mg in data set [5]; 1170 nmol/min/mg in data set [6]. Moreover, the figures for the activity in data set [7] and in data set [8] were 655 nmol/min/mg and 303 nmol/min/mg, respectively.

The record behind these values is US20140087436.
